Measurements from patent US20040235710A1, “Pre-mixes of glp-1 and basal insulin” (published 2004).

Experiments:
human GLP-1 receptor [1] = target: T1, human GLP-1 receptor (human, UniProt P43220)
human GLP-1 receptor [2] = target: T1, human GLP-1 receptor; assay: cell-based or functional assay
human GLP-1 receptor [3] = target: T1, human GLP-1 receptor; assay: cell-based or functional assay; remark: listed apart in the source

Row | Molecule | GLP-1 receptor activation relative to Val^8-GLP-1(7-37)OH (relative potency) (human GLP-1 receptor [1]) | GLP-1 Receptor Activation (relative to GLP-1(7-37)OH) (human GLP-1 receptor [2]) [relative potency] | GLP-1 receptor activation relative to Val^8-GLP-1(7-37)OH (human GLP-1 receptor [3]) [relative potency]
1 | Val^8-Cys^16-Lys^26-GLP-1(7-37)OH (peptide) | 4.2 |  | 
2 | Val^8-Val^16-GLP-1(7-37)OH (peptide) | 1.1 |  | 
3 | Val^8-Cys^16-Lys^26-Arg^34-GLP-1(7-37)OH (peptide) | 1.9 |  | 
4 | HVEGTFTSDYSSYLEGQAAKEFIAWLVKGRG [Val^8-Tyr^16-GLP-1(7-37)OH] |  | 1.18 | 2.5
5 | HVEGTFTSDISSYLEEQAAKEFIAWLVKGRG [Val^8-Ile^16-Glu^22-GLP-1(7-37)OH] |  |  | 3.3
6 | HVEGTFTSDVSSFLEEQAAKEFIAWLVKGRG [Val^8-Phe^19-Glu^22-GLP-1(7-37)OH] |  |  | 1.5
7 | HVEGTFTSDVSSYFEEQAAKEFIAWLVKGRG [Val^8-Phe^20-Glu^22-GLP-1(7-37)OH] |  |  | 2.7
8 | HVEGTFTSDVSSWLEEQAAKEFIAWLVKGRG [Val^8-Trp^19-Glu^22-GLP-1(7-37)OH] |  |  | 3.2
9 | HVEGTFTSDVSSYLEEQAIKEFIAWLVKGRG [Val^8-Glu^22-Ile^25-GLP-1(7-37)OH] |  |  | 3.1
10 | HVEGTYTSDVSSYLEGQAAKEFIAWLVKGRG [Val^8-Tyr^12-GLP-1(7-37)OH] |  | 0.81 | 1.7
11 | HVEGTFTSDVSSYLEEQALKEFIAWLVKGRG [Val^8-Glu^22-Leu^25-GLP-1(7-37)OH] |  |  | 2.8
12 | HVEGTFTSDVSSYLEEQAAKIFIAWLVKGRG [Val^8-Glu^22-Ile^27-GLP-1(7-37)OH] |  |  | 2
13 | HVEGTFTSDYSSWLEEQAAKEFIAWLVKGRG [Val^8-Tyr^16-Trp^19-Glu^22-GLP-1(7-37)OH] |  |  | 3.5
14 | HVDGIFTSDYSSYLEEQAAKEFIAWLVKGRG [Val^8-Asp^9-Ile^11-Tyr^16-Glu^22-GLP-1(7-37)OH] |  |  | 4.3
15 | HVEGTFTSDFSSYLEEQAAKEFIAWLVKGRG [Val^8-Phe^16-Glu^22-GLP-1(7-37)OH] |  |  | 2.3
16 | HVEGTFTSDVSFYLEEQAAKEFIAWLVKGRG [Val^8-Phe^18-Glu^22-GLP-1(7-37)OH] |  |  | 2
17 | HVEGTFTSDWSSYLEEQAAKEFIAWLIKGRG [Val^8-Trp^16-Glu^22-Ile^33-GLP-1(7-37)OH] |  |  | 4.1
18 | HVEGTFTSDVSIYLEEQAAKEFIAWLVKGRG [Val^8-Ile^18-Glu^22-GLP-1(7-37)OH] |  |  | 4
19 | HVEGTFTSDVSKYLEEQAAKEFIAWLVKGRG [Val^8-Lys^18-Glu^22-GLP-1(7-37)OH] |  |  | 2.5
20 | HVEGTFTSDWSSYLEEQAVKEFIAWLIKGRG [Val^8-Trp^16-Glu^22-Val^25-Ile^33-GLP-1(7-37)OH] |  |  | 5
